Test system: MS2 coat protein
Test: apparent KD of MS2 coat protein; designed switch direction (-1 OFF switch, 1 ON switch): 1; higher = weaker reporter binding
In short: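 Apparent KD, taken as the median over clusters for each design, was obtained by curve-fitting normalised cluster fluorescence. Designed RNA switches had been transcribed on Illumina chips by stalled E. coli RNA polymerase and titrated with SNAP-549-labelled MS2 coat protein, doubling from 0.7 or 1.5 nM to 3 µM.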

[1] = input ligand: microRNA oligo, concentration not stated
[2] = Eterna round: R95, input ligand: FMN 200 uM
[3] = Eterna round: R95, input ligand: microRNA oligo, concentration not stated
[4] = Eterna round: R95, input ligand: none

| Sequence | apparent KD of MS2 coat protein (input ligand: FMN 200 uM) [nM] | apparent KD of MS2 coat protein [1] [nM] | apparent KD of MS2 coat protein (input ligand: none) [nM] | apparent KD of MS2 coat protein [2] [nM] | apparent KD of MS2 coat protein [3] [nM] | apparent KD of MS2 coat protein [4] [nM] |
| --- | --- | --- | --- | --- | --- | --- |
| UCUGCAAGAACAGGAUAUGGGUUCAGAGCGGGAGUGCGCUUUGACACAUGAGGAUCACCCAUGUCCCAGAAGGGUUCAUGCGGC [Eseseste] (Eterna round: R96, puzzle: Same State NG 2) | 62.7 | 484 | 364 | – | – | – |
| UCUUGGUUUUUGCUCGUUUUUUGUGUUGAACAUGAGGAUCACCCAUGUAUUGUACAAUCCAGUUUAAUAAUGGUCCG [JMF 49] (puzzle: Sensor for hsa-mir-208a) | – | – | – | 105 | 87.3 | 130 |
| UCUUGGUUUUUGCUCGUUUUUUGUGUUGAACAUGAGGAUCACCCAUGUAUUGUACGGUCCAGUUUGGUGGUAGUCCG [JMF 71] (puzzle: Sensor for hsa-mir-208a) | – | – | – | 32.9 | 24.4 | 38 |
| UCUUGGUUUUUGCUCGUUUUUUGUGUUGAACAUGAGGAUCACCCAUGUAUUGUACGGUCCGAUUUAAUGAUGGUCCA [JMF 39] (puzzle: Sensor for hsa-mir-208a) | – | – | – | 32.4 | 19.7 | 34.1 |
| UGAAUGGUGAUAGGAUAUACAUGAGGAAUCCUCGUAGAAGGAUCACGACAUGAGGAUCACCCAUGUAGCCGUCCGUAGACGGCA [JL SSNG1 1.23] (Eterna round: R96, puzzle: Same State NG 1) | 99.7 | 778 | 242 | – | – | – |
| UGACACACGGCAGGAUAUCCUUAGCAAAGCUAAGGAGAAGGGCCUCAUGUCGUGGAAACGUGACAUGAGGAUCACCCAUGUCGC [Omei SS(NG)1 Cv8] (Eterna round: R96, puzzle: Same State NG 1) | 58.7 | 5.65 | 34.1 | – | – | – |
| UGAGCCGGCACUGAGGAUAUUCAUAUUAAAACAUGAGGAUCACCCAUGUAGGCCAGAAGGCCUUGGGAGAAGGCAGGUCGGCUCA [Mat - Same State 2 - Mod of UCT - D62] (Eterna round: R96, puzzle: Same State 2) | 19.5 | 190 | 311 | – | – | – |
| UGAGCCGGCACUGAGGAUAUUCAUAUUAAAACAUGAGGAUCACCCAUGUAGGCCAGAAGGCCUUGGGAGAAGGCAGGUCGGCUCA [Mat - Same State 2 - Mod of UCT - D62] (puzzle: Same State 2) | – | – | – | – | 200 | – |
| UGCCAUUGUAUAUUGGUGCAAGCUUUUUGACAUGAGGAUCACCCAUGUACUCGUCUUAUGUGCAGUCCGUAGACUGC [JL-shm-2.23 Brourd mod] (puzzle: Sensor for hsa-mir-208a) | – | – | – | 24 | 13.5 | 22.8 |
| UGCUAUUGUAUAUUGGUGCAAGCUUUUUGACAUGAGGAUCACCCAUGUACUCGUCUUUAGCGCAGUCCGUAGACUGC (puzzle: Sensor for hsa-mir-208a) | – | – | – | 52.4 | 13.5 | 56.6 |
| UGCUGUGUGGUAGGAUAUGUAGGAUAUGUACAUGAGGAUCACCCAUGUCAGUUAAUGACAGAAGGAUAGAAGGACCAGAGGGCU [pwkr ssNG2 2FMN 1F5s.3] (Eterna round: R96, puzzle: Same State NG 2) | 254 | 205 | 249 | – | – | – |
| UGGAGAAGUCAAGGAUAUGCUACCGUUUCGGUAGCAGAAGGUGAUCACAUGAGGAUCACCCAUGUAUGCAUGCGUGAGCGUGCU [JL SSNG1 3.55] (Eterna round: R96, puzzle: Same State NG 1) | 337 | 15.2 | 125 | – | – | – |
| UGGAUCUAGGCUUGCCUGGGUCCAUGUUGACAUGAGGAUCACCCAUGUGUUUUUUUUUUGCUUUUUGUUUGUCAACA [JL A Humble Attempt mod 3] (puzzle: Sensor for hsa-mir-208a) | – | – | – | 19.1 | 12.3 | 21.7 |
| UGGCUCAGACGAGGAUAUAUGCGAUCACAUGAGGAUCACCCAUGUCUCGAGCUUCGGCUCGAGGCAUAGAAGGCGUCUGAGCCU [SSNG2/4-A3] (Eterna round: R96, puzzle: Same State NG 2) | 13 | 25.9 | 27.7 | – | – | – |
| UGGCUCAGACGAGGAUAUAUGUAAUAACAUGAGGAUCACCCAUGUGUCGAGCUUCGGCUCGACACAUAGAAGGCGUCUGAGCCA [SSNG2/2-A2] (Eterna round: R96, puzzle: Same State NG 2) | 14.7 | 17.9 | 28.2 | – | – | – |
| UGGCUCAGACGAGGAUAUGAUCAUGGCGCUUCGGCGCAUACAUGAGGAUCACCCAUGUAAAGUGAUCAGAAGGUGUCUGAGCCA [SSNG2/7-B2] (Eterna round: R96, puzzle: Same State NG 2) | 13 | 11.6 | 14.5 | – | – | – |
| UGGCUCAGACUAGGAUAUAUGCGAUCACAUGAGGAUCACCCAUGUCUCGAGCUUCGGCUCGAGGCAUAGAAGGAGUCUGAGCCU [SSNG2/4-D3] (Eterna round: R96, puzzle: Same State NG 2) | 14.8 | 35.5 | 46.7 | – | – | – |
| UGGUUGGAGAGAGAGGAUAUCCAAUUUUCAACAUGAGGAUCACCCAUGUAGAACGUAGGUAAUUGGGAGAAGGCUCAAGAGACAU [salish99_ss2_r3_100] (puzzle: Same State 2) | – | – | – | 26.9 | 14.5 | 23.5 |
| UGUACCUUCACAGGAUAUCAUGCGAAAAUUGCGUGAGAAGGGUGAAUACGGUGUUAAUAAAAGCACAUGAGGAUCACCCAUGUA [SameState NG1 #56] (Eterna round: R96, puzzle: Same State NG 1) | 303 | 246 | 471 | – | – | – |
| UGUACUUUCAUAGGAUAUCAUGCGAAAAUUGCGUGAGAAGGGUGAAUACUGUCUUUCUAAGAGUACAUGAGGAUCACCCAUGUA [SameState NG1 #63] (Eterna round: R96, puzzle: Same State NG 1) | 77.3 | 80.2 | 67.5 | – | – | – |
| UGUUAACAUGAGGAUCACCCAUGUCAAAUGAAUCGAGGAUAUGGAAAGUAAUAAGAUGAACUAGAAGGUGAAGUUG [Altered State 1-19 - Jieux - Same State 1] (puzzle: Same State 1) | – | – | – | 37.1 | 55.7 | 57.3 |
| UGUUAUUAGACAGGAUAUUGAAUGUUAAGUAUUAACAUGAGGAUCACCCAUGUAUUUGAUUGGUACAAGAAGGGUCAUGUUUGU [JR_SSNG2_Sub015] (Eterna round: R96, puzzle: Same State NG 2) | – | 303 | – | – | – | – |
| UGUUGUAUUACAGGAUAUCUAGUAUUUUUAUUCAGAGAAGGGUAUUCACAUGAGGAUCACCCAUGUAUAUACGAGGAAGUUGUG [JMF's solution 56] (Eterna round: R96, puzzle: Same State NG 1) | – | 34.1 | – | – | – | – |
